Assay results reported in publication PMC7840993, “Fluorescent thermal shift-based method for detection of NF-κB binding to double-stranded DNA” (Scientific Reports, 2021).

Columns and labels:
p50 = target: T1, p50 (Homo sapiens, UniProt P19838); test: inhibition of dsDNA binding by fluorescence thermal shift assay
T1 construct: gene NFKB1; p50_1-367 (aa 1–367, complete RHD), HIS-tagged
T1 sequence (P19838 1-367): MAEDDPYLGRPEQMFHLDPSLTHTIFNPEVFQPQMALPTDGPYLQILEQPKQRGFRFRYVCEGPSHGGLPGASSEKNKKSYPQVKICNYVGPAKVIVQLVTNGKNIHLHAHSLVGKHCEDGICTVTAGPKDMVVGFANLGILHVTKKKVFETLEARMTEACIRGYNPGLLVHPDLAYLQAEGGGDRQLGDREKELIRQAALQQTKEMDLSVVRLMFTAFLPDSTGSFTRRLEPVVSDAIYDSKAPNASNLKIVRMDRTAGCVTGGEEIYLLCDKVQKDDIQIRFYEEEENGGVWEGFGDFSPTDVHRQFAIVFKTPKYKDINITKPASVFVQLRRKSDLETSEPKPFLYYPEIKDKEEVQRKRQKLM

p65/RelA = p65/RelA (Homo sapiens, UniProt Q04206); test: inhibition of […]κB dsDNA binding by fluorescence thermal shift assay (also lowers Tm of the protein without DNA); EMSA
[1] = target: T2, p50 1-367 (complete RHD) (human) (UniProt P19838); test: fluorescence thermal shift (SYPRO Orange); details: apparent KD, two equivalent κB sites considered; 1.5 µM protein; ΔTmax 2.462 °C; Thermal shift: 50 mM Tris-HCl pH 7.5, 225 mM NaCl, 2.25% glycerol, 25 min at 4 °C, then 25-95 °C melt; EMSA: 10 mM Tris-HCl pH 7.5, 0.5 mM EDTA, 65 mM KCl, 5 mM
T2 sequence: T1 sequence (P19838 1-367)

[2] = target: p65/RelA 1-306 (complete RHD) (human) (UniProt Q04206); test: fluorescence thermal shift (SYPRO Orange); details: apparent KD, two equivalent κB sites considered; 1.5 µM protein; ΔTmax 1.678 °C; Thermal shift: 50 mM Tris-HCl pH 7.5, 225 mM NaCl, 2.25% glycerol, 25 min at 4 °C, then 25-95 °C melt; EMSA: 10 mM Tris-HCl pH 7.5, 0.5 mM EDTA, 65 mM KCl, 5 mM
p50 1-367 (complete RHD) = p50 1-367 (complete RHD) (human, UniProt P19838 1-367); test: fluorescence thermal shift (SYPRO Orange); 10 µM DNA, 1.5 µM protein; Tm raised about 2-3 °C (1κB and 2κB range); Thermal shift: 50 mM Tris-HCl pH 7.5, 225 mM NaCl, 2.25% glycerol, 25 min at 4 °C, then 25-95 °C melt; EMSA: 10 mM Tris-HCl pH 7.5, 0.5 mM EDTA, 65 mM KCl, 5 mM MgCl2, 1 mM DTT, 100 µg/mL BSA, 10% glycerol, 50 ng/µl poly(dI-dC), 45 min at 30 °C; details: protein: recombinant; tags: His, N-terminal Myc; chain copies: 2; label: none; only one strand given
[3] = target: p65/RelA 1-306 (complete RHD) (human, UniProt Q04206 1-306); test: fluorescence thermal shift (SYPRO Orange); 10 µM DNA, 1.5 µM protein; Tm raised about 1-1.5 °C (1κB and 2κB range); Thermal shift: 50 mM Tris-HCl pH 7.5, 225 mM NaCl, 2.25% glycerol, 25 min at 4 °C, then 25-95 °C melt; EMSA: 10 mM Tris-HCl pH 7.5, 0.5 mM EDTA, 65 mM KCl, 5 mM MgCl2, 1 mM DTT, 100 µg/mL BSA, 10% glycerol, 50 ng/µl poly(dI-dC), 45 min at 30 °C; details: protein: recombinant; chain copies: 2; label: none; only one strand given
p65/RelA 1-306 (complete RHD), sequence (Q04206 1-306): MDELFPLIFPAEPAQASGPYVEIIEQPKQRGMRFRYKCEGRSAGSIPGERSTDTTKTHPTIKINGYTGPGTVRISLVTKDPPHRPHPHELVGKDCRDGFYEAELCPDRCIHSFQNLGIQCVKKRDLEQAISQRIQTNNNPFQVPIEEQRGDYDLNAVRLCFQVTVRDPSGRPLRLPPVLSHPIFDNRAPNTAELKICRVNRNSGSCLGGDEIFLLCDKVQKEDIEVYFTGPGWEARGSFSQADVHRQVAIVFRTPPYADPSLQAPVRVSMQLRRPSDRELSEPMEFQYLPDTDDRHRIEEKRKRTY

p65/RelA, sequence (Q04206 1-306): as above
p65/RelA 1-306 (complete RHD) (human), sequence (Q04206 1-306): as above

CC1=C(CO)C(=O)O[C@@H]([C@@H](C)[C@H]2CC[C@H]3[C@@H]4C[C@H]5O[C@]56[C@@H](O)C=CC(=O)[C@]6(C)[C@H]4CC[C@]23C)C1 [WFA, withaferin A] was tested, and the IC50 (p50) was roughly 19.1 µM and the IC50 (p65/RelA) was roughly 16.4 µM.

In the case of “AATTCGGGACTTTCCCGTCGGGACTTTCC (double strand) [2κB dsDNA]”, the Kd [1] is reported as 794 nM and the Kd [2] is reported as 2230 nM.

B1: 1κB dsDNA (dsDNA)
DNA 1: AGTTGAGGGGACTTTCCCAGGC
DNA 2: GCCTGGGAAAGTCCCCTCAACT
B1: binds (p50 1-367 (complete RHD)); binds [3].
